In patent publication US20070104726A1:

Experiments:
[1] = biological target: CD21 (CR2) on human CD21+ Raji lymphoblastoid cells (human) (UniProt P20023); assay: flow cytometry on Raji cells, 100 nM; reference monomeric C3d (Calbiochem)
[2] = biological target: IgG constant region-CD21 fusion protein (UniProt P20023); assay: ELISA, IgG constant region-CD21 fusion coated; reference monomeric C3d (Calbiochem)

- fold signal intensity increase against C3d (Calbiochem) [1]: 6.4 fold
- fold increase in gradient of the linear portion of the binding curve against monomeric C3d [2]: 3.4 fold
Substance: linear trimer of human C3d, called C3d3 or APT2029
